# T1: SNTG1, Q9NSN8
# T1 sequence (Q9NSN8 52-150, limits assumed, looked up): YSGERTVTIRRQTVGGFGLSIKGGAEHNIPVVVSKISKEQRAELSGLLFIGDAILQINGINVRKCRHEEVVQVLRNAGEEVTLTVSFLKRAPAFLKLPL
# T2: HTRA4, P83105
# T2 sequence (P83105 378-476, limits assumed, looked up): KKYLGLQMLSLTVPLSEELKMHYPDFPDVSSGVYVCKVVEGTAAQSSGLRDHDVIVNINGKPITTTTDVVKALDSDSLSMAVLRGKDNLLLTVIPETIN
# T3: PDZRN3_1, Q9UPQ7
# T3 sequence (Q9UPQ7 244-349, limits assumed, looked up): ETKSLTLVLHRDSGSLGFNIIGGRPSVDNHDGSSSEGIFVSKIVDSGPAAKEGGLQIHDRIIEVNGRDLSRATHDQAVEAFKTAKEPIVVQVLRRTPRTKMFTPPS
# T4: MPP7, Q5T2T1
# T4 sequence (Q5T2T1 134-230, limits assumed, looked up): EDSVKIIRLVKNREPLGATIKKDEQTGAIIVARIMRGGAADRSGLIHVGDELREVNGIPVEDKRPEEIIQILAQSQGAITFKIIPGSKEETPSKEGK
# T5: SNTG2, Q9NY99
# T5 sequence (Q9NY99 68-166, limits assumed, looked up): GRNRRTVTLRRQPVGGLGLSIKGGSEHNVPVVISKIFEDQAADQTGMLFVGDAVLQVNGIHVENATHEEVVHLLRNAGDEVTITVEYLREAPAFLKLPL
# T6: LIN7A, O14910
# T6 sequence (O14910 103-200, limits assumed, looked up): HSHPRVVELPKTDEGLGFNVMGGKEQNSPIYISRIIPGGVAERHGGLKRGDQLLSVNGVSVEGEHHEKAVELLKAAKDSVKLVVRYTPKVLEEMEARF
# T7: PARD3B_1, Q8TEW8
# T7 sequence (Q8TEW8 196-299, limits assumed, looked up): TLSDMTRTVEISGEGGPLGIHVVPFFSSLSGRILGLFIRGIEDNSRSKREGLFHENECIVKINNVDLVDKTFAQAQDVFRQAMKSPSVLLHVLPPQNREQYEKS
# T8: NHERF3_4, Q5T2W1
# T8 sequence (Q5T2W1 373-468, limits assumed, looked up): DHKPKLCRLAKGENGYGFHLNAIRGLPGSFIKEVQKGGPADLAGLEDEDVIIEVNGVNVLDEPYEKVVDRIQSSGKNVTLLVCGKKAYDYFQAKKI
# T9: RAPGEF6, Q8TEU7
# T9 sequence (Q8TEU7 525-625, limits assumed, looked up): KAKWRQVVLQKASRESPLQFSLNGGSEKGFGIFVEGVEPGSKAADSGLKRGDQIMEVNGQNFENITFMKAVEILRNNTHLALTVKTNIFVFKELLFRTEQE
# T10: DLG3_2, Q92796
# T10 sequence (Q92796 221-321, limits assumed, looked up): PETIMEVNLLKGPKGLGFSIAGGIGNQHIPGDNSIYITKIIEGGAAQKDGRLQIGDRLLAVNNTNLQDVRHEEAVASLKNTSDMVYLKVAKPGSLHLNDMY
# Legend:
# Assay in all cases: holdup assay
# Design in all cases: key: below the threshold = too weak to quantify, mostly under pKd 3.1 to 4
# PICK1, Q9NRD5 = target: PICK1, Q9NRD5
# Chain of PICK1, Q9NRD5 (Q9NRD5 17-115): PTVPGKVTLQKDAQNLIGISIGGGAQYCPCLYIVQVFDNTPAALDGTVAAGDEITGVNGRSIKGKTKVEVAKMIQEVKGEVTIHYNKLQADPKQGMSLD
# DLG4_1, P78352 = target: DLG4_1, P78352
# Chain of DLG4_1, P78352 (P78352 62-152): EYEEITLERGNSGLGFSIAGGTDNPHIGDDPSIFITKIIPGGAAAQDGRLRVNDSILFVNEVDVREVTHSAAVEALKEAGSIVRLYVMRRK
# GRIP2_7, Q9C0E4 = target: GRIP2_7, Q9C0E4
# Chain of GRIP2_7, Q9C0E4 (Q9C0E4 934-1023): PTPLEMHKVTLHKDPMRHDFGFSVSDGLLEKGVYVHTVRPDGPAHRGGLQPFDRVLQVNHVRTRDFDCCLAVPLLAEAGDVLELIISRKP
# MAGI2_3, Q86UL8 = target: MAGI2_3, Q86UL8
# Chain of MAGI2_3, Q86UL8 (Q86UL8 600-682): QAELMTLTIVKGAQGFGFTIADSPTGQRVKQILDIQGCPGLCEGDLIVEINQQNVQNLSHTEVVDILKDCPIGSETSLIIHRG
# SCRIB_3, Q14160 = target: SCRIB_3, Q14160
# Chain of SCRIB_3, Q14160 (Q14160 999-1103): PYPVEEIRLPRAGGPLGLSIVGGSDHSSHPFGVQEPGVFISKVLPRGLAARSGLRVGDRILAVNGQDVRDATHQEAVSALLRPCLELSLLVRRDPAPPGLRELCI
# NHERF2_2, Q15599 = target: NHERF2_2, Q15599
# Chain of NHERF2_2, Q15599 (Q15599 142-238): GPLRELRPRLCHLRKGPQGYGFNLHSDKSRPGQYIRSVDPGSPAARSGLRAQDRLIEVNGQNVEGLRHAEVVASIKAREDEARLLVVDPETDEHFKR
# LNX1_1, Q8TBB1 = target: LNX1_1, Q8TBB1
# Chain of LNX1_1, Q8TBB1 (Q8TBB1 261-371): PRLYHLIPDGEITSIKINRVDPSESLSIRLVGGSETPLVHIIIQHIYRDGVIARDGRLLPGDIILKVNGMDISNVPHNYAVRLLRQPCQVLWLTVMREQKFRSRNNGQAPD
# SNTG1, Q9NSN8 = target: T1, SNTG1, Q9NSN8
# MAGI1_2, Q96QZ7 = target: MAGI1_2, Q96QZ7
# Chain of MAGI1_2, Q96QZ7 (Q96QZ7 456-580): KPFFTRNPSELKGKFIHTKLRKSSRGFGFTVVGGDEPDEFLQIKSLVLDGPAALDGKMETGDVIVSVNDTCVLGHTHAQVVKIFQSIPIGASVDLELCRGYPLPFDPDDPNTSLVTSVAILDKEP
# Inadl_9, Q8NI35 = target: Inadl_9, Q8NI35
# Chain of Inadl_9, Q8NI35 (Q8NI35 1530-1615): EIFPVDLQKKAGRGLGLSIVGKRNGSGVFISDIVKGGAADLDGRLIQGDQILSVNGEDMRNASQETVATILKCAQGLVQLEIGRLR
# HTRA4, P83105 = target: T2, HTRA4, P83105
# PDZRN3_1, Q9UPQ7 = target: T3, PDZRN3_1, Q9UPQ7
# HTRA1, Q92743 = target: HTRA1, Q92743
# Chain of HTRA1, Q92743 (Q92743 360-477): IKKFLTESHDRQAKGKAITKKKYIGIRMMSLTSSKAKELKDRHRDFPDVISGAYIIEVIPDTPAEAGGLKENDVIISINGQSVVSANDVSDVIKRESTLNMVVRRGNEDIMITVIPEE
# NHERF4_2, Q86UT5 = target: NHERF4_2, Q86UT5
# Chain of NHERF4_2, Q86UT5 (Q86UT5 220-308): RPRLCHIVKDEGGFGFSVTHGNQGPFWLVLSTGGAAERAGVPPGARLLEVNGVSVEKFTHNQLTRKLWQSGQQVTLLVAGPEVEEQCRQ
# MPP7, Q5T2T1 = target: T4, MPP7, Q5T2T1
# SNTG2, Q9NY99 = target: T5, SNTG2, Q9NY99
# MAGI2_5, Q86UL8 = target: MAGI2_5, Q86UL8
# Chain of MAGI2_5, Q86UL8 (Q86UL8 915-1017): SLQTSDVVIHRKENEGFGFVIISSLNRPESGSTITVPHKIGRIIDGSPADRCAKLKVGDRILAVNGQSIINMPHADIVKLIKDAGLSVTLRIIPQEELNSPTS
# LIN7A, O14910 = target: T6, LIN7A, O14910
# PARD3B_1, Q8TEW8 = target: T7, PARD3B_1, Q8TEW8
# NHERF3_4, Q5T2W1 = target: T8, NHERF3_4, Q5T2W1
# FRMPD4, Q14CM0 = target: FRMPD4, Q14CM0
# Chain of FRMPD4, Q14CM0 (Q14CM0 67-160): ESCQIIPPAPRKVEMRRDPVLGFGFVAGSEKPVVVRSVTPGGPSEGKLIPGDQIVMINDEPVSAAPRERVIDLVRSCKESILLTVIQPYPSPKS
# MAST1, Q9Y2H9 = target: MAST1, Q9Y2H9
# Chain of MAST1, Q9Y2H9 (Q9Y2H9 962-1065): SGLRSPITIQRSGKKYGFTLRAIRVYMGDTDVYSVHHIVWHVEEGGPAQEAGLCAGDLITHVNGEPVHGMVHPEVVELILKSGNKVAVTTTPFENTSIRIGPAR
# RAPGEF6, Q8TEU7 = target: T9, RAPGEF6, Q8TEU7
# IL16_3, Q14005 = target: IL16_3, Q14005
# Chain of IL16_3, Q14005 (Q14005 1107-1207): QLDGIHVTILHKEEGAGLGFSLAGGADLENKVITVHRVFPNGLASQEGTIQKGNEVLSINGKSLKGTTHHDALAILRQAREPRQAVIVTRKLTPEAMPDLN
# LIMK2, P53671 = target: LIMK2, P53671
# Chain of LIMK2, P53671 (P53671 143-248): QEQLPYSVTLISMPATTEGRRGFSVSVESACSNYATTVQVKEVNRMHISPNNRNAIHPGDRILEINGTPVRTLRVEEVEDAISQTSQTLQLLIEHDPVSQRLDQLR
# Inadl_3, Q8NI35 = target: Inadl_3, Q8NI35
# Chain of Inadl_3, Q8NI35 (Q8NI35 359-469): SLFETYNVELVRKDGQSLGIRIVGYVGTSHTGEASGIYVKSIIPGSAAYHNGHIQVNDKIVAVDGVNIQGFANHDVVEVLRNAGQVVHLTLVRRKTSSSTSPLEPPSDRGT
# DLG3_2, Q92796 = target: T10, DLG3_2, Q92796
# [1] = plain residues with an end cap or a label only (N-terminal biotin on a linker: ttds)
# [2] = plain residues with an end cap or a label only (N-terminal biotin on a linker: ahx)
binder,measurement,setting,value
"RLPKIKETTV [FRMPD4, Q14CM0]",pKd,"PICK1, Q9NRD5; [1]",below the threshold
same,pKd,"DLG4_1, P78352; [1]",5.05
same,pKd,"GRIP2_7, Q9C0E4; [1]",below the threshold
same,pKd,"MAGI2_3, Q86UL8; [1]",4.05
same,pKd,"SCRIB_3, Q14160; [1]",4.88
same,pKd,"NHERF2_2, Q15599; [1]",below the threshold
same,pKd,"LNX1_1, Q8TBB1; [1]",below the threshold
same,pKd,"SNTG1, Q9NSN8; [1]",5.02
same,pKd,"MAGI1_2, Q96QZ7; [1]",4.49
same,pKd,"Inadl_9, Q8NI35; [1]",3.48
same,pKd,"HTRA4, P83105; [1]",below the threshold
same,pKd,"PDZRN3_1, Q9UPQ7; [1]",4.47
same,pKd,"HTRA1, Q92743; [1]",3.64
same,pKd,"NHERF4_2, Q86UT5; [1]",below the threshold
same,pKd,"MPP7, Q5T2T1; [1]",below the threshold
same,pKd,"SNTG2, Q9NY99; [1]",5.3
same,pKd,"MAGI2_5, Q86UL8; [1]",3.9
same,pKd,"LIN7A, O14910; [1]",4.38
same,pKd,"PARD3B_1, Q8TEW8; [1]",3.45
same,pKd,"NHERF3_4, Q5T2W1; [1]",below the threshold
same,pKd,"FRMPD4, Q14CM0; [1]",3.4
same,pKd,"MAST1, Q9Y2H9; [1]",4.26
same,pKd,"RAPGEF6, Q8TEU7; [1]",below the threshold
same,pKd,"IL16_3, Q14005; [1]",below the threshold
same,pKd,"LIMK2, P53671; [1]",below the threshold
same,pKd,"Inadl_3, Q8NI35; [1]",below the threshold
same,pKd,"DLG3_2, Q92796; [1]",5.6
"HNAFLSVTTV [PDZRN4, Q6ZMN7]",pKd,"PICK1, Q9NRD5; [2]",below the threshold
same,pKd,"DLG4_1, P78352; [2]",below the threshold
same,pKd,"GRIP2_7, Q9C0E4; [2]",below the threshold
same,pKd,"MAGI2_3, Q86UL8; [2]",3.49
same,pKd,"SCRIB_3, Q14160; [2]",below the threshold
same,pKd,"NHERF2_2, Q15599; [2]",below the threshold
same,pKd,"LNX1_1, Q8TBB1; [2]",below the threshold
same,pKd,"SNTG1, Q9NSN8; [2]",below the threshold
same,pKd,"MAGI1_2, Q96QZ7; [2]",3.61
same,pKd,"Inadl_9, Q8NI35; [2]",below the threshold
same,pKd,"HTRA4, P83105; [2]",below the threshold
same,pKd,"PDZRN3_1, Q9UPQ7; [2]",3.56
same,pKd,"HTRA1, Q92743; [2]",3.61
same,pKd,"NHERF4_2, Q86UT5; [2]",below the threshold
same,pKd,"MPP7, Q5T2T1; [2]",below the threshold
same,pKd,"SNTG2, Q9NY99; [2]",3.6
same,pKd,"MAGI2_5, Q86UL8; [2]",below the threshold
same,pKd,"LIN7A, O14910; [2]",3.52
same,pKd,"PARD3B_1, Q8TEW8; [2]",3.55
same,pKd,"NHERF3_4, Q5T2W1; [2]",3.61
same,pKd,"FRMPD4, Q14CM0; [2]",3.5
same,pKd,"MAST1, Q9Y2H9; [2]",3.65
same,pKd,"RAPGEF6, Q8TEU7; [2]",below the threshold
same,pKd,"IL16_3, Q14005; [2]",below the threshold
same,pKd,"LIMK2, P53671; [2]",below the threshold
same,pKd,"Inadl_3, Q8NI35; [2]",3.66
same,pKd,"DLG3_2, Q92796; [2]",3.61
"EVVHTPETSV [SLC16A3, O15427]",pKd,"PICK1, Q9NRD5; [1]",below the threshold
same,pKd,"DLG4_1, P78352; [1]",3.9
same,pKd,"GRIP2_7, Q9C0E4; [1]",below the threshold
same,pKd,"MAGI2_3, Q86UL8; [1]",below the threshold
same,pKd,"SCRIB_3, Q14160; [1]",4.58
same,pKd,"NHERF2_2, Q15599; [1]",below the threshold
same,pKd,"LNX1_1, Q8TBB1; [1]",below the threshold
same,pKd,"SNTG1, Q9NSN8; [1]",4.71
same,pKd,"MAGI1_2, Q96QZ7; [1]",below the threshold
same,pKd,"Inadl_9, Q8NI35; [1]",below the threshold
same,pKd,"HTRA4, P83105; [1]",below the threshold
same,pKd,"PDZRN3_1, Q9UPQ7; [1]",4.42
same,pKd,"HTRA1, Q92743; [1]",below the threshold
same,pKd,"NHERF4_2, Q86UT5; [1]",below the threshold
same,pKd,"MPP7, Q5T2T1; [1]",below the threshold
same,pKd,"SNTG2, Q9NY99; [1]",4.55
same,pKd,"MAGI2_5, Q86UL8; [1]",below the threshold
same,pKd,"LIN7A, O14910; [1]",below the threshold
same,pKd,"PARD3B_1, Q8TEW8; [1]",below the threshold
same,pKd,"NHERF3_4, Q5T2W1; [1]",below the threshold
same,pKd,"FRMPD4, Q14CM0; [1]",below the threshold
same,pKd,"MAST1, Q9Y2H9; [1]",4.11
same,pKd,"RAPGEF6, Q8TEU7; [1]",below the threshold
same,pKd,"IL16_3, Q14005; [1]",below the threshold
same,pKd,"LIMK2, P53671; [1]",below the threshold
same,pKd,"Inadl_3, Q8NI35; [1]",below the threshold
same,pKd,"DLG3_2, Q92796; [1]",4.08
"GYDWGPATDL [TJP3, O95049]",pKd,"PICK1, Q9NRD5; [2]",below the threshold
same,pKd,"DLG4_1, P78352; [2]",3.53
same,pKd,"GRIP2_7, Q9C0E4; [2]",below the threshold
same,pKd,"MAGI2_3, Q86UL8; [2]",below the threshold
same,pKd,"SCRIB_3, Q14160; [2]",4.93
same,pKd,"NHERF2_2, Q15599; [2]",4.64
same,pKd,"LNX1_1, Q8TBB1; [2]",4.84
same,pKd,"SNTG1, Q9NSN8; [2]",4.33
same,pKd,"MAGI1_2, Q96QZ7; [2]",below the threshold
same,pKd,"Inadl_9, Q8NI35; [2]",3.6
same,pKd,"HTRA4, P83105; [2]",below the threshold
same,pKd,"PDZRN3_1, Q9UPQ7; [2]",3.69
same,pKd,"HTRA1, Q92743; [2]",4.12
same,pKd,"NHERF4_2, Q86UT5; [2]",below the threshold
same,pKd,"MPP7, Q5T2T1; [2]",below the threshold
same,pKd,"SNTG2, Q9NY99; [2]",4.32
same,pKd,"MAGI2_5, Q86UL8; [2]",below the threshold
same,pKd,"LIN7A, O14910; [2]",3.66
same,pKd,"PARD3B_1, Q8TEW8; [2]",3.65
same,pKd,"NHERF3_4, Q5T2W1; [2]",below the threshold
same,pKd,"FRMPD4, Q14CM0; [2]",3.83
same,pKd,"MAST1, Q9Y2H9; [2]",4.78
same,pKd,"RAPGEF6, Q8TEU7; [2]",below the threshold
same,pKd,"IL16_3, Q14005; [2]",below the threshold
same,pKd,"LIMK2, P53671; [2]",below the threshold
same,pKd,"Inadl_3, Q8NI35; [2]",3.72
same,pKd,"DLG3_2, Q92796; [2]",3.78
